Test results as given in US20210246166A1 (Bayer, published 2021).
Bridge positions count the residues as written; N and C are the ends. Square brackets hold non-standard residues; d marks the D form. Ends that are not written are not given here. * marks the point of attachment. Dihydroorotyl(S) = O=C1C[C@@H](C(=O)*)NC(=O)N1; Oic = O=C(O)[C@@H]1C[C@@H]2CCCC[C@@H]2N1; PEG7 = NCCOCCOCCOCCOCCOCCOCCOCCC(=O)O; NMeI = CC[C@H](C)[C@H](NC)C(=O)O; tBuAla = CC(C)(C)C[C@H](N)C(=O)O; 3Pal = N[C@@H](Cc1cccnc1)C(=O)O; PEG5 = NCCOCCOCCOCCOCCOCCC(=O)O; 2Thi = N[C@@H](Cc1cccs1)C(=O)O; Pen = CC(C)(S)[C@H](N)C(=O)O; NMeC = CN[C@@H](CS)C(=O)O; Orn = NCCC[C@H](N)C(=O)O; GABA = NCCCC(=O)O; Sar = CNCC(=O)O

T1: recombinant human MASP1 active protease (amino acids 297-699, C-terminal His Tag) (human, UniProt P48740 297-699)
T1 sequence: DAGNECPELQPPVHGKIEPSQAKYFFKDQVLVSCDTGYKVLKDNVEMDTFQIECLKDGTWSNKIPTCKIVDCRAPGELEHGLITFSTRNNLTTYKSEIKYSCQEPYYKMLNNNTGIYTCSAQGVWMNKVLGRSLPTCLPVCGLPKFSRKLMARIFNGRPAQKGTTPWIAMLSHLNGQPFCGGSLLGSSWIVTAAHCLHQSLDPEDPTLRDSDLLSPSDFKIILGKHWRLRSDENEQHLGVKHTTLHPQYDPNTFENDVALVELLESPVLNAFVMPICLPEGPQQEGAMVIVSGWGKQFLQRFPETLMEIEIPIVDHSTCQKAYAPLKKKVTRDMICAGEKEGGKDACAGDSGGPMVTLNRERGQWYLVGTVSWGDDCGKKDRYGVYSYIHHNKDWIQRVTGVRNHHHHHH

B1: (Orn)-IC+SRS-((tBu)A)-PPI-(Pen)+IPD-NH2 (peptide)
peptide: [Orn]ICSRS[tBuAla]PPI[Pen]IPD-NH2
modifications: disulfide 3-11; N-terminus assumed
SMILES: CC[C@H](C)[C@H](NC(=O)[C@@H](N)CCCN)C(=O)N[C@H]1CSSC(C)(C)[C@@H](C(=O)N[C@H](C(=O)N2CCC[C@H]2C(=O)N[C@@H](CC(=O)O)C(N)=O)[C@@H](C)CC)NC(=O)[C@H]([C@@H](C)CC)NC(=O)[C@@H]2CCCN2C(=O)[C@@H]2CCCN2C(=O)[C@H](CC(C)(C)C)NC(=O)[C@H](CO)NC(=O)[C@H](CCCNC(=N)N)NC(=O)[C@H](CO)NC1=O
B2: aIC+SRS-((tBu)A)-PPI-(Pen)+IPD-NH2 (peptide)
peptide: [dA]ICSRS[tBuAla]PPI[Pen]IPD-NH2
modifications: disulfide 3-11; N-terminus assumed
SMILES: CC[C@H](C)[C@H](NC(=O)[C@@H](C)N)C(=O)N[C@H]1CSSC(C)(C)[C@@H](C(=O)N[C@H](C(=O)N2CCC[C@H]2C(=O)N[C@@H](CC(=O)O)C(N)=O)[C@@H](C)CC)NC(=O)[C@H]([C@@H](C)CC)NC(=O)[C@@H]2CCCN2C(=O)[C@@H]2CCCN2C(=O)[C@H](CC(C)(C)C)NC(=O)[C@H](CO)NC(=O)[C@H](CCCNC(=N)N)NC(=O)[C@H](CO)NC1=O
B3: Ac-G-((N-Me)I)-C+SRSLPPIC+IPD-OH (peptide)
peptide: Ac-G[NMeI]CSRSLPPICIPD-OH
modifications: disulfide 3-11
SMILES: CC[C@H](C)[C@@H]1NC(=O)[C@@H]2CCCN2C(=O)[C@@H]2CCCN2C(=O)[C@H](CC(C)C)NC(=O)[C@H](CO)NC(=O)[C@H](CCCNC(=N)N)NC(=O)[C@H](CO)NC(=O)[C@@H](NC(=O)[C@H]([C@@H](C)CC)N(C)C(=O)CNC(C)=O)CSSC[C@@H](C(=O)N[C@H](C(=O)N2CCC[C@H]2C(=O)N[C@@H](CC(=O)O)C(=O)O)[C@@H](C)CC)NC1=O
B4: ((N-Me)G)-IC+SRSLP-(Oic)-I-(Pen)+IPD-OH (peptide)
peptide: [Sar]ICSRSLP[Oic]I[Pen]IPD-OH
modifications: disulfide 3-11; N-terminus assumed
SMILES: CC[C@H](C)[C@H](NC(=O)CNC)C(=O)N[C@H]1CSSC(C)(C)[C@@H](C(=O)N[C@H](C(=O)N2CCC[C@H]2C(=O)N[C@@H](CC(=O)O)C(=O)O)[C@@H](C)CC)NC(=O)[C@H]([C@@H](C)CC)NC(=O)[C@@H]2C[C@@H]3CCCC[C@@H]3N2C(=O)[C@@H]2CCCN2C(=O)[C@H](CC(C)C)NC(=O)[C@H](CO)NC(=O)[C@H](CCCNC(=N)N)NC(=O)[C@H](CO)NC1=O
B5: (3-Pal)-IC+SRS-((tBu)A)-PPI-(Pen)+IPD-NH2 (peptide)
peptide: [3Pal]ICSRS[tBuAla]PPI[Pen]IPD-NH2
modifications: disulfide 3-11; N-terminus assumed
SMILES: CC[C@H](C)[C@H](NC(=O)[C@@H](N)Cc1cccnc1)C(=O)N[C@H]1CSSC(C)(C)[C@@H](C(=O)N[C@H](C(=O)N2CCC[C@H]2C(=O)N[C@@H](CC(=O)O)C(N)=O)[C@@H](C)CC)NC(=O)[C@H]([C@@H](C)CC)NC(=O)[C@@H]2CCCN2C(=O)[C@@H]2CCCN2C(=O)[C@H](CC(C)(C)C)NC(=O)[C@H](CO)NC(=O)[C@H](CCCNC(=N)N)NC(=O)[C@H](CO)NC1=O
B6: (beta-2-thienylalanine)-IC+SRS-((tBu)A)-PPI-(Pen)+IPD-NH2 (peptide)
peptide: [2Thi]ICSRS[tBuAla]PPI[Pen]IPD-NH2
modifications: disulfide 3-11; N-terminus assumed
SMILES: CC[C@H](C)[C@H](NC(=O)[C@@H](N)Cc1cccs1)C(=O)N[C@H]1CSSC(C)(C)[C@@H](C(=O)N[C@H](C(=O)N2CCC[C@H]2C(=O)N[C@@H](CC(=O)O)C(N)=O)[C@@H](C)CC)NC(=O)[C@H]([C@@H](C)CC)NC(=O)[C@@H]2CCCN2C(=O)[C@@H]2CCCN2C(=O)[C@H](CC(C)(C)C)NC(=O)[C@H](CO)NC(=O)[C@H](CCCNC(=N)N)NC(=O)[C@H](CO)NC1=O
B7: ((N-Me)G)-IC+SRSLP-(Oic)-I-(Pen)+IP-(PEG4(19 atoms))-NH2 (peptide)
peptide: [Sar]ICSRSLP[Oic]I[Pen]IP[PEG5]-NH2
modifications: disulfide 3-11; N-terminus assumed
SMILES: CC[C@H](C)[C@H](NC(=O)CNC)C(=O)N[C@H]1CSSC(C)(C)[C@@H](C(=O)N[C@H](C(=O)N2CCC[C@H]2C(=O)NCCOCCOCCOCCOCCOCCC(N)=O)[C@@H](C)CC)NC(=O)[C@H]([C@@H](C)CC)NC(=O)[C@@H]2C[C@@H]3CCCC[C@@H]3N2C(=O)[C@@H]2CCCN2C(=O)[C@H](CC(C)C)NC(=O)[C@H](CO)NC(=O)[C@H](CCCNC(=N)N)NC(=O)[C@H](CO)NC1=O
B8: AIC+SRS-((tBu)A)-P-(Oic)-IC+I-NH2 (peptide)
peptide: AICSRS[tBuAla]P[Oic]ICI-NH2
modifications: disulfide 3-11; N-terminus assumed
SMILES: CC[C@H](C)[C@H](NC(=O)[C@@H]1CSSC[C@H](NC(=O)[C@@H](NC(=O)[C@H](C)N)[C@@H](C)CC)C(=O)N[C@@H](CO)C(=O)N[C@@H](CCCNC(=N)N)C(=O)N[C@@H](CO)C(=O)N[C@@H](CC(C)(C)C)C(=O)N2CCC[C@H]2C(=O)N2[C@@H](C[C@@H]3CCCC[C@@H]32)C(=O)N[C@@H]([C@@H](C)CC)C(=O)N1)C(N)=O
B9: (beta-P)-IC+SRS-((tBu)A)-PPI-(Pen)+IP-NH2 (peptide)
peptide: PICSRS[tBuAla]PPI[Pen]IP-NH2
modifications: disulfide 3-11; N-terminus assumed
SMILES: CC[C@H](C)[C@H](NC(=O)[C@@H]1CCCN1)C(=O)N[C@H]1CSSC(C)(C)[C@@H](C(=O)N[C@H](C(=O)N2CCC[C@H]2C(N)=O)[C@@H](C)CC)NC(=O)[C@H]([C@@H](C)CC)NC(=O)[C@@H]2CCCN2C(=O)[C@@H]2CCCN2C(=O)[C@H](CC(C)(C)C)NC(=O)[C@H](CO)NC(=O)[C@H](CCCNC(=N)N)NC(=O)[C@H](CO)NC1=O
B10: (Hoo)-IC+SRS-((tBu)A)-PPI-(Pen)+IPD-NH2 (peptide)
peptide: [Dihydroorotyl(S)]ICSRS[tBuAla]PPI[Pen]IPD-NH2
modifications: disulfide 3-11
SMILES: CC[C@H](C)[C@H](NC(=O)[C@@H]1CC(=O)NC(=O)N1)C(=O)N[C@H]1CSSC(C)(C)[C@@H](C(=O)N[C@H](C(=O)N2CCC[C@H]2C(=O)N[C@@H](CC(=O)O)C(N)=O)[C@@H](C)CC)NC(=O)[C@H]([C@@H](C)CC)NC(=O)[C@@H]2CCCN2C(=O)[C@@H]2CCCN2C(=O)[C@H](CC(C)(C)C)NC(=O)[C@H](CO)NC(=O)[C@H](CCCNC(=N)N)NC(=O)[C@H](CO)NC1=O
B11: (Gamma-Abu)-IC+SRS-((tBu)A)-PPI-(Pen)+IPD-NH2 (peptide)
peptide: [GABA]ICSRS[tBuAla]PPI[Pen]IPD-NH2
modifications: disulfide 3-11; N-terminus assumed
SMILES: CC[C@H](C)[C@H](NC(=O)CCCN)C(=O)N[C@H]1CSSC(C)(C)[C@@H](C(=O)N[C@H](C(=O)N2CCC[C@H]2C(=O)N[C@@H](CC(=O)O)C(N)=O)[C@@H](C)CC)NC(=O)[C@H]([C@@H](C)CC)NC(=O)[C@@H]2CCCN2C(=O)[C@@H]2CCCN2C(=O)[C@H](CC(C)(C)C)NC(=O)[C@H](CO)NC(=O)[C@H](CCCNC(=N)N)NC(=O)[C@H](CO)NC1=O
B12: AIC+SRSLP-(Oic)-I-((N-Me)C)+IP-NH2 (peptide)
peptide: AICSRSLP[Oic]I[NMeC]IP-NH2
modifications: disulfide 3-11; N-terminus assumed
SMILES: CC[C@H](C)[C@H](NC(=O)[C@H](C)N)C(=O)N[C@H]1CSSC[C@@H](C(=O)N[C@H](C(=O)N2CCC[C@H]2C(N)=O)[C@@H](C)CC)N(C)C(=O)[C@H]([C@@H](C)CC)NC(=O)[C@@H]2C[C@@H]3CCCC[C@@H]3N2C(=O)[C@@H]2CCCN2C(=O)[C@H](CC(C)C)NC(=O)[C@H](CO)NC(=O)[C@H](CCCNC(=N)N)NC(=O)[C@H](CO)NC1=O
B13: AIC+SRS-((tBu)A)-P-(Oic)-IC+I-NH2 (peptide)
peptide: AICSRS[tBuAla]P[Oic]ICI-NH2
modifications: disulfide 3-11; N-terminus assumed
SMILES: CC[C@H](C)[C@H](NC(=O)[C@@H]1CSSC[C@H](NC(=O)[C@@H](NC(=O)[C@H](C)N)[C@@H](C)CC)C(=O)N[C@@H](CO)C(=O)N[C@@H](CCCNC(=N)N)C(=O)N[C@@H](CO)C(=O)N[C@@H](CC(C)(C)C)C(=O)N2CCC[C@H]2C(=O)N2[C@@H](C[C@@H]3CCCC[C@@H]32)C(=O)N[C@@H]([C@@H](C)CC)C(=O)N1)C(N)=O
B14: ((N-Me)G)-IC+SRSLP-(Oic)-I-(Pen)+IP-(PEG7(25 atoms))-NH2 (peptide)
peptide: [Sar]ICSRSLP[Oic]I[Pen]IP[PEG7]-NH2
modifications: disulfide 3-11; N-terminus assumed
SMILES: CC[C@H](C)[C@H](NC(=O)CNC)C(=O)N[C@H]1CSSC(C)(C)[C@@H](C(=O)N[C@H](C(=O)N2CCC[C@H]2C(=O)NCCOCCOCCOCCOCCOCCOCCOCCC(N)=O)[C@@H](C)CC)NC(=O)[C@H]([C@@H](C)CC)NC(=O)[C@@H]2C[C@@H]3CCCC[C@@H]3N2C(=O)[C@@H]2CCCN2C(=O)[C@H](CC(C)C)NC(=O)[C@H](CO)NC(=O)[C@H](CCCNC(=N)N)NC(=O)[C@H](CO)NC1=O

Biological target: T1, recombinant human MASP1 active protease …
Assay: cell-based or functional assay

Q: For B1, which “human MASP1 IC50” value is on record?
A: 2 nM

Q: With B2 as the binder, how does the “human MASP1 IC50” value read?
A: 2 nM

Q: Which “human MASP1 IC50” value does the source give for B3 here?
A: 2.09 nM

Q: For AICSRSLP[Oic]I[Pen]IPD-OH (disulfide 3-11) [AIC+SRSLP-(Oic)-I-(Pen)+IPD-OH (salt free form)], which “human MASP1 IC50” value is on record?
A: 0.96 nM

Q: With AICSRSLP[Oic]I[Pen]IPD-NH2 (disulfide 3-11; also: TFA salt) [AIC+SRSLP-(Oic)-I-(Pen)+IPD-NH2] as the binder, how does the “human MASP1 IC50” value read?
A: 2.23 nM

Q: For B4, which “human MASP1 IC50” value is on record?
A: 2.5 nM

Q: With B5 as the binder, how does the “human MASP1 IC50” value read?
A: 2.6 nM

Q: How did the “human MASP1 IC50” value turn out when B6 was run?
A: 2.6 nM

Q: How did the “human MASP1 IC50” value turn out when B7 was run?
A: 2.6 nM

Q: For B8, which “human MASP1 IC50” value is on record?
A: 2.7 nM

Q: Which “human MASP1 IC50” value does the source give for B9 here?
A: 1.1 nM

Q: With B10 as the binder, how does the “human MASP1 IC50” value read?
A: 3 nM

Q: For B11, which “human MASP1 IC50” value is on record?
A: 3 nM

Q: How did the “human MASP1 IC50” value turn out when B12 was run?
A: 3.2 nM

Q: For B13, which “human MASP1 IC50” value is on record?
A: 3.3 nM

Q: Which “human MASP1 IC50” value does the source give for AICSRSLP[Oic]I[Pen]IPD-OH (disulfide 3-11; also: TFA salt) [AIC+SRSLP-(Oic)-I-(Pen)+IPD-OH] here?
A: 1.85 nM

Q: For B14, which “human MASP1 IC50” value is on record?
A: 3.7 nM
